Patent US20250346685A1
pKd: −log10 of the molar value.

Key:
FcgRI = FcgRI (UniProt P12314); experiment: SPR
[1] = biological target: human CD3 on T cells (Jurkat cells; human peripheral blood CD4+ and CD8+ T-cells) (human) (UniProt P07766); experiment: flow cytometry on Jurkat cells

Chain of FcgRI (P12314 16-288): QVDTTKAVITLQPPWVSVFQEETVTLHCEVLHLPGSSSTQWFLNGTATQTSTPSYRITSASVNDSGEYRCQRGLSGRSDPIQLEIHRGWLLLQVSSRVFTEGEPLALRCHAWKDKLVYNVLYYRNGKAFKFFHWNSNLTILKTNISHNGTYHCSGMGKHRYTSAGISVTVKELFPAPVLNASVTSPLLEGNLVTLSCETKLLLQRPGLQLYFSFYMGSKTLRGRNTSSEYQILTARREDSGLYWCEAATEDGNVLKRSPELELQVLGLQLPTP

Row | Substance | pKd (FcgRI) | affinity (FACS) [1] [nM]
1 | KLH-hIgG4 | 8.06 | 
2 | OKT3-hIgG1 (antibody) |  | 0.27
